Data reported in JP2019218309A (dated 2019).
No end group written: not given here.

Tests used:
[1] = target: T1, 測定用抗原(1): PEG化GIP(1−15) (PEGylated N-terminal 15 amino acids of active GIP) (also: PEGylated, site not given here); assay: ELISA, immobilised PEGylated peptide, hybridoma culture supernatant
T1 construct: also called GIP(1-15)
T1 peptide: YAEGTFISDYSIAMD

[2] = target: T2, 測定用抗原(2): PEG化GIP(3−15) (PEGylated N-terminal 13 amino acids of inactive GIP) (also: PEGylated, site not given here); assay: as above
T2 construct: also called GIP(3-15)
T2 peptide: EGTFISDYSIAMD

GIP(3−42) (inactive GIP) = target: T3, GIP(3−42) (inactive GIP); assay: sandwich ELISA: anti-total GIP monoclonal antibody as capture, biotinylated m1 at 1 ug/mL as detection
T3 construct: also called 非活性型GIP; 不活性型のGIP(3−42)
T3 peptide: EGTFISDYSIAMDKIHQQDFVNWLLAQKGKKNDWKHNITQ

GIP(1−42) (active GIP) = target: T4, GIP(1−42) (active GIP); assay: sandwich ELISA: anti-total GIP monoclonal antibody as capture, biotinylated m1 at 1 ug/mL as detection, GIP at 8.2-2000 pg/mL
T4 construct: a Human (total) GIP ELISA kit was used; also called 活性型GIP; GIP(1-42)
T4 peptide: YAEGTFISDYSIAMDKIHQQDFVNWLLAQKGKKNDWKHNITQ

B1: ハイブリドーマ9B9H5−B9株から産生されるモノクローナル抗体 (anti-active GIP monoclonal antibody of hybridoma 9B9H5-B9) (antibody, V domains shown)
VH: QVQLQQPGAELVKPGASVKLSCKASGYTFTSFWMHWVIQRPGQGLEWIGEMNPSDGRTHFNEKFKTKATLTIDTSSNTAYMELNSLTSEDSAVYYCARRMEDWGQGTLVTVSA
VL: DIKMTQSPSSMYASLGERVTITCKASQDINSYLGWFQQKPGKSPKTLIYGANRLVDGVPSRFSGSGSGQDYSLTISSLEYDDMGIYYCLQYDEFPLTFGAGTKLELKR
notes: Mouse (BALB/c) hybridoma monoclonal antibody, purified on Protein A; also called 抗活性型GIP抗体; 抗活性型GIPモノクローナル抗体
B1: binds [1]; no binding [2]; no binding (GIP(3−42) (inactive GIP)). B1: binds (GIP(1−42) (active GIP)).
